Consider 18 substances from PMC10522485.

The first test has as its target CLIP102-120 labeled with FITC (human). Put plainly: fluorescence polarisation; equilibrium; empty DR from bacterial expression varied from 4 µM to 7.8125 nM (2-fold dilutions), CLIP-FITC fixed at 100 nM. Background: Polarisation of emitted light reports the rotation of a fluorescent probe.
As a reminder, the Kd is the constant that tells how readily two partners part at equilibrium. With “empty HLA-DR DRA*01:01/DRB1*01:01(R71A) from bacterial expression (complex)”, the Kd is 1360 nM.
“empty HLA-DR DRA*01:01/DRB1*01:01 from bacterial expression (complex)” gave a Kd of 414 nM.
In the case of “empty HLA-DR DRA*01:01(N62A)/DRB1*01:02 from bacterial expression (complex)”, the Kd was found to be 512 nM.
In the case of “empty HLA-DR DRA*01:01(N62A)/DRB1*01:01 from bacterial expression (complex)”, the Kd came to 1110 nM.
With “empty HLA-DR DRA*01:01/DRB1*01:02 from bacterial expression (complex)”, the Kd was determined as 325 nM.
Turning to “empty HLA-DR DRA*01:01/DRB1*01:02(R71A) from bacterial expression (complex)”, the Kd worked out at 508 nM.

The target is the same in a further test. Put plainly: fluorescence polarisation; dissociation of 100 nM DR/CLIP-FITC complexes with 20 µM unlabeled CLIP102-120 as competitor, no DM (intrinsic off-rate), 37 °C, phosphate/citrate buffer pH 5.2.
By koff is commonly meant the first-order rate constant of dissociation. The substance “HLA-DR DRA*01:01/DRB1*08:01, insect cell-expressed (complex)” displayed a koff of 6.88e-05 s⁻¹.
As to “HLA-DR DRA*01:01/DRB1*01:01, insect cell-expressed (complex)”, the koff turned out to be 1.06e-05 s⁻¹.
Still for that read-out and setting: next, “HLA-DR DRA*01:01/DRB1*14:01, insect cell-expressed (complex)”: 6.27e-05 s⁻¹; “HLA-DR DRA*01:01/DRB1*07:01, insect cell-expressed (complex)”: 3.25e-05 s⁻¹.
The same measure, in the same setting: next, “HLA-DR DRA*01:01/DRB1*01:02, insect cell-expressed (complex)”: 2.45e-05 s⁻¹; “HLA-DR DRA*01:01/DRB1*08:02, insect cell-expressed (complex)”: 1.01e-05 s⁻¹.
The same measure, in the same setting: next, “HLA-DR DRA*01:01/DRB1*15:01, insect cell-expressed (complex)”: 0.000223 s⁻¹; “HLA-DR DRA*01:01/DRB1*04:04, insect cell-expressed (complex)”: 3.22e-05 s⁻¹.
“HLA-DR DRA*01:01/DRB1*13:02, insect cell-expressed (complex)” displayed a koff of 0.000148 s⁻¹.
The substance “HLA-DR DRA*01:01/DRB1*13:01, insect cell-expressed (complex)” came in with a koff of 7.9e-05 s⁻¹.
As for “HLA-DR DRA*01:01/DRB1*03:01, insect cell-expressed (complex)”, the koff is 0.000317 s⁻¹.
In turn, “HLA-DR DRA*01:01/DRB1*04:01, insect cell-expressed (complex)” came in with a koff of 4.23e-05 s⁻¹.
